# Laboratory results as given in article PMC9667317.
# Key:
# Conditions in all cases: other: capillary electrophoresis
# [1] = molecular target: WT Cu, Zn superoxide dismutase-1 (SOD1), recombinant human (UniProt P00441); experiment: capillary electrophoresis; binder (first named) as apo-SOD1, target (second named, WT or TD) as 4Zn-SOD1; 15 μM dimer each ([SOD1]total = 30 μM), followed over time; 10 mM potassium phosphate pH 7.4, CE at 22 °C, storage at 15 °C; KHet assumed from the fit extrapolated to t = 5000 min
# Sequence of WT Cu, Zn superoxide dismutase-1 (SOD1), recombinant human (P00441 whole entry): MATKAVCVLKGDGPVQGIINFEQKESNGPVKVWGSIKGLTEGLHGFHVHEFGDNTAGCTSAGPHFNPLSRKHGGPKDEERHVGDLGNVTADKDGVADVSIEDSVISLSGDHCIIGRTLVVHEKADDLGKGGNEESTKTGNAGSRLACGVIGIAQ
# [2] = molecular target: WT Cu, Zn superoxide dismutase-1 (SOD1), recombinant human (UniProt P00441); experiment: capillary electrophoresis; both homodimers as 4Zn-SOD1; 15 μM dimer each ([SOD1]total = 30 μM), followed over time; 10 mM potassium phosphate pH 7.4, CE at 22 °C, storage at 15 °C; KHet assumed from the fit extrapolated to t = 5000 min
# [3] = molecular target: WT Cu, Zn superoxide dismutase-1 (SOD1), recombinant human (UniProt P00441); experiment: capillary electrophoresis; binder (first named) as 4Zn-SOD1, target (second named, WT or TD) as apo-SOD1; 15 μM dimer each ([SOD1]total = 30 μM), followed over time; 10 mM potassium phosphate pH 7.4, CE at 22 °C, storage at 15 °C; KHet assumed from the fit extrapolated to t = 5000 min
# [4] = molecular target: WT Cu, Zn superoxide dismutase-1 (SOD1), recombinant human (UniProt P00441); experiment: capillary electrophoresis; both homodimers apo (metal-free, disulfide intact), mixed at 15 μM dimer each ([SOD1]total = 30 μM), followed over time; 10 mM potassium phosphate pH 7.4, CE at 22 °C, storage at 15 °C; KHet assumed from the fit extrapolated to t = 5000 min
# Sequence of triply deamidated SOD1 (modeled with N26D/N131D/N139D substitutions), recombinant human (chain, as listed by the source N26D N131D N139D): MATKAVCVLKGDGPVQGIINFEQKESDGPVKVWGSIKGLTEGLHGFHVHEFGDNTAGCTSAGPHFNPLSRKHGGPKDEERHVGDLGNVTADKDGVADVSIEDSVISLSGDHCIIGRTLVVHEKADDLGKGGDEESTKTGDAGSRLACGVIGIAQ
substance,measurement,setting,value
"triply deamidated SOD1 (modeled with N26D/N131D/N139D substitutions), recombinant human",t30% (time to reach 30% heterodimer),[1],188 min
same,t30% (time to reach 30% heterodimer),[2],339 min
same,t30% (time to reach 30% heterodimer),[3],297 min
same,t30% (time to reach 30% heterodimer),[4],85.8 min
